Data: paper PMC10384657

Target: MPER25c (spike S2 membrane proximal region peptide) MPER (Severe acute respiratory syndrome coronavirus 2), P0DTC2
Assay: SPR
Conditions: modification not given

FGAGAALQIPFAMQMAYRF [PN19 (spike S2 internal fusion peptide)]
Kd: 9.44 nM
